We go through one molecule from publication PMC11190223, “Identification of sulfakinin receptor regulating feeding behavior and hemolymph trehalose homeostasis in the silkworm, Bombyx mori” (Scientific Reports, 2024).

Where no end group is shown, it is not given here. [ ]: non-standard residue; d: D form. sY = N[C@@H](Cc1ccc(OS(=O)(=O)O)cc1)C(=O)O

Test [1] has as its target T1, BNGR-A9 expressed in BmN cells (pIZT-BNGR-A9) (Bombyx mori) (UniProt B3XXM2).
T1 sequence: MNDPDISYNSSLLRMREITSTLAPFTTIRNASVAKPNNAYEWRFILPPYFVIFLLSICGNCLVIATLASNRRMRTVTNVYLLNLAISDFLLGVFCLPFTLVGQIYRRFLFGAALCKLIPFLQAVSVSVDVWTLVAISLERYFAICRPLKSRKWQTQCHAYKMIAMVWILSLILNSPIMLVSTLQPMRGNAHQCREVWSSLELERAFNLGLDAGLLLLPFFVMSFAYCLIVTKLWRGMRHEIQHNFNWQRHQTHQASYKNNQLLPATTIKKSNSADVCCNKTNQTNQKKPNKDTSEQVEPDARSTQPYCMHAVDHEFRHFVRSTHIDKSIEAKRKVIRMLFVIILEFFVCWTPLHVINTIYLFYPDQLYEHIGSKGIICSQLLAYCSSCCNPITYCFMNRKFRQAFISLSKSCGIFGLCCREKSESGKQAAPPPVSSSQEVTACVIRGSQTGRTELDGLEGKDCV

Test [2] concerns the target T2, Flag-BNGR-A9 (Bombyx mori neuropeptide G protein-coupled receptor A9) expressed in HEK293 cells (Bombyx mori) (UniProt B3XXM2).
T2 sequence: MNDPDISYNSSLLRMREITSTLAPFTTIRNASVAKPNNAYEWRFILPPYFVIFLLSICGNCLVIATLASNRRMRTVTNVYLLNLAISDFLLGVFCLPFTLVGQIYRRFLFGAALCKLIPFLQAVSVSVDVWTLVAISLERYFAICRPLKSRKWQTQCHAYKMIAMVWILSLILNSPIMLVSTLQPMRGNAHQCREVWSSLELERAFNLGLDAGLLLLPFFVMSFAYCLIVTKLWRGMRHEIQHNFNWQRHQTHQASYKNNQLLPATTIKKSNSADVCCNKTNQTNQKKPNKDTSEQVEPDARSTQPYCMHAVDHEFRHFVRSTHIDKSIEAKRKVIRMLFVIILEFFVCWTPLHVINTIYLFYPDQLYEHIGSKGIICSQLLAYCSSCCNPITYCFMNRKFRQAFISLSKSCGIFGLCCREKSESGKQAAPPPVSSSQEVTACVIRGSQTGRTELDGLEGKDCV

Test [3] concerns the target T1, BNGR-A9 expressed in BmN cells (pIZT-BNGR-A9) (Bombyx mori). The source holds these as a separate data set.
The target in test [4] is T2, Flag-BNGR-A9 (Bombyx mori neuropeptide G protein-coupled receptor A9) expressed in HEK293 cells (Bombyx mori). This is another data set of the same source.

B1: Bombyx mori sulfated-sulfakinin (peptide)
peptide: GDDTFDD[sY]GHLRF-NH2
modifications: N-terminus assumed
SMILES: CC(C)C[C@H](NC(=O)[C@H](Cc1c[nH]cn1)NC(=O)CNC(=O)[C@H](Cc1ccc(OS(=O)(=O)O)cc1)NC(=O)[C@H](CC(=O)O)NC(=O)[C@H](CC(=O)O)NC(=O)[C@H](Cc1ccccc1)NC(=O)[C@@H](NC(=O)[C@H](CC(=O)O)NC(=O)[C@H](CC(=O)O)NC(=O)CN)[C@@H](C)O)C(=O)N[C@@H](CCCNC(=N)N)C(=O)N[C@@H](Cc1ccccc1)C(N)=O
Consider B1, for which the CRE-driven luciferase reporter, dose-response, BmN cells stably expressing BNGR-A9 in test [1] amounted to 60 nM. This molecule also registered a CRE-driven luciferase reporter, dose-response, HEK293 cells stably expressing BNGR-A9 in test [2] of 73.3 nM. In test [3], this molecule came in with a Fura-2 AM Ca2+ mobilization, dose-response, BmN cells expressing BNGR-A9 of 51.4 nM. The Fura-2 AM Ca2+ mobilization, dose-response 1 nM to 1 uM, HEK293 cells stably expressing BNGR-A9 in test [4] is 29 nM.
